For orientation: EC50 means the concentration giving half of the maximal effect. Higher therefore signals weaker potency. By Kd is commonly meant a measure of binding affinity in units of concentration. High values mean lower affinity, low ones higher affinity. Usually IC50 stands for the concentration that gives 50% inhibition.

In assay [1] the target is T1, 人OX40胞外区重组蛋白(OX40-His) (human, UniProt P43489 29-214).
T1 construct: extracellular domain; also called 人OX40重组蛋白(10481-H08H，北京义翘神州); 人OX40胞外区融合蛋白; not shown: His tag
T1 sequence (looked up): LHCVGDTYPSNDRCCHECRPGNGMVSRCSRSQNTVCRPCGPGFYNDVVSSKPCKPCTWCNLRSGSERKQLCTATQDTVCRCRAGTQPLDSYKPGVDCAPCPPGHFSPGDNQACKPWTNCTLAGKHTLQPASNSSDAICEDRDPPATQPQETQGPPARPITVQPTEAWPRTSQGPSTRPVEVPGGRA
The assay is described as follows: ELISA, OX40-His coated.

Assay [2] has as its target PD-L1 on CHO-PD-L1-CD3L cells (UniProt Q9NZQ7 19-290, limits assumed). The assay can be described thus: cell-based or functional assay.
Assay [3] addresses T2, human OX40 on HT1080-hOX40 cells (human, UniProt P43489 29-277).
T2 sequence (looked up): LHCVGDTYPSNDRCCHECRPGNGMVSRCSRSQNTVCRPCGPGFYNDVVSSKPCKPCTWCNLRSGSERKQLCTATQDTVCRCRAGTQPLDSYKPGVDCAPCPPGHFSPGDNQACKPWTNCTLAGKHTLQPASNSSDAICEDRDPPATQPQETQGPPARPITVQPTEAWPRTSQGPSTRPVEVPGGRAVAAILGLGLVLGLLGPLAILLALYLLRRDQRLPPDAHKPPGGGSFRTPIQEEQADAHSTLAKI
The assay can be described thus: cell-based or functional assay.

For assay [4], the target named is T1, 人OX40胞外区重组蛋白(OX40-His). The assay can be described thus: ELISA, OX40-His coated at 1 ug/mL, anti-human Fc-HRP detection.
The target in assay [5] is T3, 人PD-L1胞外区重组蛋白(PD-L1-His) (human, UniProt Q9NZQ7 19-238).
T3 construct: extracellular domain; also called 人PD-L1重组蛋白(10084-H08H，北京义翘神州); 人PD-L1胞外区融合蛋白; not shown: His tag
T3 sequence (Q9NZQ7 19-238): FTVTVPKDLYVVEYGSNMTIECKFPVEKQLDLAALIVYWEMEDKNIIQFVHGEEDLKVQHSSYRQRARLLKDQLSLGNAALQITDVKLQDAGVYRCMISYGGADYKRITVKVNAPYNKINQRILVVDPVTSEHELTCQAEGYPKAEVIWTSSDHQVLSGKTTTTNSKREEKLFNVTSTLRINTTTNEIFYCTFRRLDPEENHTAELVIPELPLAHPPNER
The assay is described as follows: ELISA, PD-L1-His coated at 1 ug/mL, anti-human Fc-HRP detection.

Assay [6] deals with T1, 人OX40胞外区重组蛋白(OX40-His). The assay is described as follows: BLI (Octet QKe), antibody captured on AHC probe, antigen in solution, 1:1 Langmuir fit. In general terms: In BLI a coated tip is dipped into the sample, and binding shifts an interference pattern.
Assay [7] has as its target T3, 人PD-L1胞外区重组蛋白(PD-L1-His). Described as above.
In assay [8] the target is T4, PD-L1-mFc (UniProt Q9NZQ7 19-238, limits assumed).
T4 construct: also called 重组PD-L1; not shown: mouse Fc (mFc)
T4 sequence (Q9NZQ7 19-238 limits assumed): as the sequence (Q9NZQ7 19-238) above
The assay can be described thus: competition ELISA: PD-1-hFc coated, PD-L1-mFc 1 ug/ml in solution, blocking of PD-L1 binding to PD-1. (In general: ELISA stands for enzyme-linked immunosorbent assay.)

Sequence of PD-L1 on CHO-PD-L1-CD3L cells (Q9NZQ7 19-290 limits assumed): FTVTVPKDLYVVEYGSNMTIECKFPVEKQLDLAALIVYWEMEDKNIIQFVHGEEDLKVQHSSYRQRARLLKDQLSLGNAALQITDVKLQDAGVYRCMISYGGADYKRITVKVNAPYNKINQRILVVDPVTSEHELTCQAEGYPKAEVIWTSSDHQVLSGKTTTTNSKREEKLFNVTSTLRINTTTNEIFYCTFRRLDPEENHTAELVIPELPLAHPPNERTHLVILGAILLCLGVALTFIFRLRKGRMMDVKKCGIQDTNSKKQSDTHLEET

B1: 抗OX40人源化抗体hz27G12 (antibody, V domains shown)
VH: EVQLVQSGAEVKKPGASVKVSCKASGYTFTEYIIHWVRQAPGQGLEWIGWFYPESGSIKYNEKFKDRVTITRDTSTSTVYMELSSLRSEDTAVYYCARHEDPITFAYWGQGTLVTVSS
VL: EIVMTQSPATLSVSPGERATLSCKASQSVDYEGDSYMNWYQQKPGQAPKLLIYAASNLESGIPARFSGSGSGTDFTLTISSLEPEDFATYYCQQSNEDPYTFGGGTKVEIK
notes: Parental humanised anti-OX40 monoclonal antibody (from CN202010063141.3); also called 单抗hz27G12
In the case of B1, the binding result in assay [1] is recorded as “binds”.

B2: hz27G12-hzF2 (bispecific antibody, human IgG1, kappa)
heavy: not shown
light: EIVMTQSPATLSVSPGERATLSCKASQSVDYEGDSYMNWYQQKPGQAPKLLIYAASNLESGIPARFSGSGSGTDFTLTISSLEPEDFATYYCQQSNEDPYTFGGGTKVEIKRTVAAPSVFIFPPSDEQLKSGTASVVCLLNNFYPREAKVQWKVDNALQSGNSQESVTEQDSKDSTYSLSSTLTLSKADYEKHKVYACEVTHQGLSSPVTKSFNRGEC
notes: Symmetric four-chain molecule (two of peptide chain 1, two of peptide chain 2); expressed in HEK293, purified on Protein A; also called 抗PD-L1/OX40双特异性抗体 hz27G12-hzF2; OX40/PD-L1双特异性抗体
Take B2: in assay [2], the “对PD-1/PD-L1信号通路的阻断活性 (Jurkat-PD1-NFAT / CHO-PD-L1-CD3L luciferase reporter), IC50” value amounted to 3.38 nM. The “刺激HT1080-huOX40细胞表达IL8活性, EC50” value in assay [3] is 2.28 µg/mL. For the same molecule, the 50% effective concentration (EC50) is 0.0781 nM in assay [4] and 0.651 nM in assay [5]. Moreover, the figures for the Kd in assay [6] and in assay [7] were 8 nM and 1.3 nM, respectively. The molecule also displayed a 50% inhibitory concentration (IC50) in assay [8] of 7.12 nM.

B3: hz25A7-hzF2 (bispecific antibody, human IgG1, kappa)
heavy: not shown
light: DIQMTQSPSSLSASVGDRVTITCRASKSVSTSGSSYIHWYQQKPGKAPKLLIYLASNLESGVPSRFSGSGSGTDFTLTISSLQPEDFATYYCQHSRELPLTFGGGTKVEIKRTVAAPSVFIFPPSDEQLKSGTASVVCLLNNFYPREAKVQWKVDNALQSGNSQESVTEQDSKDSTYSLSSTLTLSKADYEKHKVYACEVTHQGLSSPVTKSFNRGEC
notes: Symmetric four-chain molecule (two of peptide chain 1, two of peptide chain 2); expressed in HEK293, purified on Protein A; also called 抗PD-L1/OX40双特异性抗体 hz25A7-hzF2; OX40/PD-L1双特异性抗体
Regarding B3, the “对PD-1/PD-L1信号通路的阻断活性 (Jurkat-PD1-NFAT / CHO-PD-L1-CD3L luciferase reporter), IC50” value in assay [2] stood at 4.75 nM. Moreover, the “刺激HT1080-huOX40细胞表达IL8活性, EC50” value in assay [3] amounted to 0.247 µg/mL. Also, the results for the 50% effective concentration (EC50) in assay [4] and in assay [5] were 0.0877 nM and 0.563 nM, respectively. Also, the values for the Kd in assay [6] and in assay [7] were 5 nM and 1 nM, respectively. The IC50 in assay [8] was found to be 6.84 nM.

B4: 抗OX40人源化抗体hz25A7 (antibody, V domains shown)
VH: EVQLVESGGGLVQPGRSLRLSCAASGFTFSSHDMSWVRQAPGKGLELVAAINSEGGRIYYPDTMERRFTISRDNSKNTLYLQMNSLRAEDTAVYYCARHYDNYAWFAYWGQGTLVTVSS
VL: DIQMTQSPSSLSASVGDRVTITCRASKSVSTSGSSYIHWYQQKPGKAPKLLIYLASNLESGVPSRFSGSGSGTDFTLTISSLQPEDFATYYCQHSRELPLTFGGGTKVEIK
notes: Parental humanised anti-OX40 monoclonal antibody (from CN202010063141.3); also called 单抗hz25A7
Regarding B4, the binding result in assay [1] is listed as “binds”.

The record behind these values is patent publication CN116355099A (BEIJING KENUO XINCHENG TECH CO LTD, dated 2023).
